Experimental data as given in the supplement of paper PMC9112550, “Optimization of the antimicrobial peptide Bac7 by deep mutational scanning” (BMC Biology, 2022).

test system: Escherichia coli TOP10; test: shrunken log2 fold change of peptide-encoding DNA abundance (4.5 h post-induction vs induction); higher = less antimicrobial activity (less host growth inhibition); details: time post-induction: 4.5 h; library: site-saturation at positions 5, 18, 19, 20
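Further: peptides expressed intracellularly from a pBAD plasmid library in pooled LB shake-flask culture, induced with 0.3% L-arabinose, DNA abundance read by NGS, three biological replicates, DESeq2 with apeglm shrinkage.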

| Sequence | shrunken log2 fold change |
| --- | --- |
| RRIRVRPPRLPRPRPRPGLWPRP | 0.76 |
| RRIRFRPPRLPRPRPRPSSRPRP | -0.273 |
| RRIRLRPPRLPRPRPRPHLNPRP | 0.141 |
| RRIRERPPRLPRPRPRPCWRPRP | 0.27 |
| RRIRERPPRLPRPRPRPPHWPRP | 0.223 |
| RRIRVRPPRLPRPRPRPIQMPRP | -0.0987 |
| RRIRTRPPRLPRPRPRPDFGPRP | -0.0474 |
| RRIRIRPPRLPRPRPRPIVQPRP | -0.158 |
| RRIRTRPPRLPRPRPRPDDGPRP | 0.02 |
| RRIRWRPPRLPRPRPRPQRFPRP | 0.206 |
| RRIRNRPPRLPRPRPRPAMNPRP | -0.000576 |
| RRIRIRPPRLPRPRPRPTGMPRP | -0.161 |
| RRIRYRPPRLPRPRPRPMFQPRP | -0.136 |
| RRIRYRPPRLPRPRPRPKRSPRP | -0.113 |
| RRIRKRPPRLPRPRPRPAMIPRP | 0.909 |
| RRIRERPPRLPRPRPRPKPYPRP | 0.082 |
| RRIRYRPPRLPRPRPRPKKTPRP | -0.0419 |
| RRIRYRPPRLPRPRPRPGIGPRP | -0.659 |
| RRIRTRPPRLPRPRPRPMMVPRP | -0.18 |
| RRIRMRPPRLPRPRPRPSTGPRP | 0.17 |
| RRIRCRPPRLPRPRPRPYRSPRP | 0.00395 |
| RRIRERPPRLPRPRPRPACWPRP | 0.715 |
| RRIRMRPPRLPRPRPRPVSSPRP | -0.0703 |
| RRIRSRPPRLPRPRPRPGEYPRP | -0.275 |
| RRIRERPPRLPRPRPRPAPFPRP | -0.244 |

| Sequence | shrunken log2 fold change |
| --- | --- |
| RRIRDRPPRLPRPRPRPSAKPRP | 0.23 |
| RRIRRRPPRLPRPRPRPADFPRP | 0.115 |
| RRIRLRPPRLPRPRPRPPMQPRP | 0.189 |
| RRIRIRPPRLPRPRPRPRGQPRP | 0.413 |
| RRIRVRPPRLPRPRPRPHRRPRP | -0.328 |
| RRIRNRPPRLPRPRPRPMFQPRP | -0.0465 |
| RRIRIRPPRLPRPRPRPWWQPRP | 0.0732 |
| RRIRERPPRLPRPRPRPISHPRP | -0.678 |
| RRIRERPPRLPRPRPRPCDFPRP | -0.502 |
| RRIRVRPPRLPRPRPRPEFDPRP | 0.197 |
| RRIRDRPPRLPRPRPRPDCKPRP | 0.0499 |
| RRIRLRPPRLPRPRPRPKGPPRP | 0.28 |
| RRIRIRPPRLPRPRPRPWTQPRP | 0.0826 |
| RRIRSRPPRLPRPRPRPTQVPRP | 0.839 |
| RRIRTRPPRLPRPRPRPGSPPRP | 0.0989 |
| RRIRIRPPRLPRPRPRPGVDPRP | 0.0326 |
| RRIRQRPPRLPRPRPRPACFPRP | 0.315 |
| RRIRTRPPRLPRPRPRPIWLPRP | -0.201 |
| RRIRLRPPRLPRPRPRPRVEPRP | 0.174 |
| RRIRWRPPRLPRPRPRPNWPPRP | 0.214 |
| RRIRWRPPRLPRPRPRPPDNPRP | 0.318 |
| RRIRMRPPRLPRPRPRPTMHPRP | 0.488 |
| RRIRERPPRLPRPRPRPTHNPRP | -0.206 |
| RRIRMRPPRLPRPRPRPWMGPRP | -0.33 |
| RRIRYRPPRLPRPRPRPTAMPRP | 0.133 |

| Sequence | shrunken log2 fold change |
| --- | --- |
| RRIRHRPPRLPRPRPRPVRVPRP | 0.0942 |
| RRIRVRPPRLPRPRPRPQTGPRP | -0.0393 |
| RRIRARPPRLPRPRPRPVDWPRP | 1.01 |
| RRIRRRPPRLPRPRPRPTGVPRP | 0.616 |
| RRIRQRPPRLPRPRPRPSLRPRP | 0.239 |
| RRIRWRPPRLPRPRPRPQWGPRP | 0.293 |
| RRIRYRPPRLPRPRPRPTSSPRP | -0.0743 |
| RRIRYRPPRLPRPRPRPDGTPRP | 0.0319 |
| RRIRERPPRLPRPRPRPVFIPRP | -0.281 |
| RRIRQRPPRLPRPRPRPEYDPRP | -0.168 |
| RRIRSRPPRLPRPRPRPFCWPRP | 0.651 |
| RRIRNRPPRLPRPRPRPMMVPRP | -0.194 |
| RRIRVRPPRLPRPRPRPMLIPRP | -0.0178 |
| RRIRYRPPRLPRPRPRPILEPRP | 0.0174 |
| RRIRQRPPRLPRPRPRPRCRPRP | 0.0135 |
| RRIRMRPPRLPRPRPRPTVFPRP | 0.498 |
| RRIRGRPPRLPRPRPRPPMSPRP | 0.565 |
| RRIRARPPRLPRPRPRPAIWPRP | 0.709 |
| RRIRIRPPRLPRPRPRPCPIPRP | 0.128 |
| RRIRDRPPRLPRPRPRPFSCPRP | 0.171 |
| RRIRRRPPRLPRPRPRPDLQPRP | 0.0255 |
| RRIRNRPPRLPRPRPRPWWCPRP | -0.111 |
| RRIRARPPRLPRPRPRPMKMPRP | 0.0994 |
| RRIRRRPPRLPRPRPRPKQGPRP | -0.079 |
| RRIRARPPRLPRPRPRPHDHPRP | -0.0299 |
